US20240167005A1, “MODIFIED SHIGELLA APYRASE AND USES THEREOF” (APIRAYS BIOSCIENCES AB, priority 2021, published 2024)
Changes are numbered by the printed parent chain. Names may count otherwise.

Key:
[1] = system: O=[N+]([O-])c1ccc(OP(=O)(O)O)cc1; assay: pNPP dephosphorylation (Example 3), mutant; format: biochemical, Shigella flexneri; conditions: other: mutant of Example 1, 50 mM Tris, pH 7.5, 37° C., 15 min, 2 μg enzyme
Method: In order to improve the activity of apyrase and its tolerance to high salt conditions, the inventors mutated the apyrase gene randomly using an error prone PCR method starting from the wild-type Shigella flexneri apyrase DNA sequence (SEQ ID NO: 4) as template. The method incorporates repeated copying of the template at high MgCl2 concentration (5 mM) with Taq polymerase. After every fourth cycle, one fifth of the reaction mixture was transferred to fresh PCR tube and the same process was repeated 22 times to obtain a product that will have randomly mutated nucleotides which can be identified by sequencing. The mutated gene was cloned in pET21a vector. The mutated DNA sequence obtained is presented as SEQ ID NO: 2, containing a total of 31 mutations leading to amino-acid changes (see SEQ ID NO:3 compared to the wild-type amino-acid sequence of SEQ ID NO: 1).
(§1) Products: para Nitro phenol (PNP, yellow colour, absorbance at 405 nm) and phosphate • pNPP+Apyrase→PNP+Pi
To further study the capability of the mutant enzyme to hydrolyse pNPP, the substrate (pNPP) was titrated and incubated with the mutant apyrase. […]
The enzymes (2 μg) were incubated with different concentrations of pNPP (dissolved in 50 mM Tris, pH 7.5) in a 100 μL reaction mixture. […] These were incubated at 37° C. for 15 minutes and absorbance was taken at 405 nm.

[2] = biological target: T1, wild-type Shigella flexneri apyrase, SEQ ID NO: 1 (Shigella flexneri, UniProt Q59909); assay: pNPP dephosphorylation (Example 3), wild type; format: biochemical; conditions: 50 mM Tris, pH 7.5, 37° C., 15 min, 2 μg enzyme
T1 sequence (Q59909 26-246): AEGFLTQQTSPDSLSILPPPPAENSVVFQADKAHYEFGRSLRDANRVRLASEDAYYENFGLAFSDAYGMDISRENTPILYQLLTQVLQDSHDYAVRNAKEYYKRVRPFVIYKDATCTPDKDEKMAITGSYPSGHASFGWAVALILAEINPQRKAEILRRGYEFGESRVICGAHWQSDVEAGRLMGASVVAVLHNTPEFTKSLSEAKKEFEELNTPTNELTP
Method: as §1
(§2) To further study the capability of the mutant enzyme to hydrolyse pNPP, the substrate (pNPP) was titrated and incubated with the mutant apyrase. As controls, alkaline phosphatase (known to hydrolyse pNPP) and the wildtype enzyme were also included.
(§3) The enzymes (2 μg) were incubated with different concentrations of pNPP (dissolved in 50 mM Tris, pH 7.5) in a 100 μL reaction mixture. For alkaline phosphatase, pNPP was dissolved in carbonate buffer (pH 10.3). Control reaction with pNPP lacking WT, mutant apyrase and alkaline phosphatase was also included. These were incubated at 37° C. for 15 minutes and absorbance was taken at 405 nm.

alkaline phosphatase = assay: pNPP dephosphorylation (Example 3), alkaline phosphatase; format: biochemical; conditions: carbonate buffer pH 10.3, 37° C., 15 min, 2 μg enzyme
Method: as §1, §2, §3

[3] = system: EIEC apyrase variant H116L; assay: Affinity of pNPP to EIEC H116L (Table 6); format: biochemical
Description: (§4) The formation of product. Para-nitro phenol was monitored colorimetrically at 405 nm using multi-mode spectrophotometer (Biotek instruments).
(§5) Respective colorimetric/fluorescence assays (mentioned above).

[4] = system: Nc1ncnc2c1ncn2[C@@H]1O[C@H](COP(=O)(O)OP(=O)(O)OP(=O)(O)O)[C@@H](O)[C@H]1O; assay: Affinity of ATP to EIEC apyrase (Table 6); format: biochemical; conditions: other: EIEC apyrase, pH 7.5, 37.0 °C
Description: as §5

[5] = system: O=[N+]([O-])c1ccc(OP(=O)(O)O)cc1; assay: Affinity of pNPP to EIEC apyrase (Table 6); format: biochemical; conditions: other: EIEC apyrase, pH 7.5, 37.0 °C
Description: as §4, §5

[6] = system: O=[N+]([O-])c1ccc(OP(=O)(O)O)cc1; assay: Affinity towards pNPP, L66V; format: biochemical, Shigella flexneri; conditions: other: L66V, 50 mM Tris-HCl pH 7.5, 37° C., 20 min, 500 ng enzyme
Description: However, not all reactions successfully generated PCR products by agarose gel electrophoresis. The successful mutations were transformed into the expression host and proteins were expressed and purified to homogeneity by affinity chromatography.
Other substrates like 2-Glycerophosphate, Pyridoxal phosphate and phenyl phosphate were not hydrolysed by the mutants (Table 2 and FIG. 8A-B).
as §4, §5

[7] = system: Cc1ncc(C[n+]2csc(CCO[P@](=O)(O)OP(=O)(O)O)c2C)c(N)n1; assay: purified protein, by the assay type; conditions: other: L66V, TPP, 50 mM Tris-HCl pH 7.5, 37° C., 20 min, 500 ng enzyme
Method: The kinetic curves were plotted and the Michaelis Menten constant (Km) was calculated using GraphPad Prism 5.0 software.

[8] = pNPP dephosphorylation assay (Example 3); format: biochemical; conditions: 2 μg enzyme, 3 mM pNPP, 50 mM Tris pH 7.5, 37° C., 15 minutes, FIG. 5
Method: Wild-type and mutant apyrase from Example 1 (2 μg each) were incubated with 3 mM pNPP (pNPP was dissolved in 50 mM Tris pH 7.5) in a 100 μL reaction mixture. Control reaction with pNPP lacking WT and mutant apyrase was also included. These were incubated at 37° C. for 15 minutes and absorbance was taken at 405 nm.
as §2, §3

[9] = TPP assay / affinity (Examples 4-5); format: biochemical; conditions: 5.0 mM TPP, 20 minutes, 37° C.; FIG. 8B, 9C
Method: A stock of freshly prepared TPP (50 mM) was prepared before performing every assay. […] Hydrolysis of Thiamine pyrophosphate (TPP) releases Thiamine, which forms a thiochrome fluorophore on addition of hydrogen peroxide and horse radish peroxidase (HRP) in alkaline conditions (NaOH-HRP-H2O2-1M NaOH, 5 U/mL HRP, 50 mM H2O2 mixed in a volumetric ratio of 3:1:1). Fluorescence was measured using multi-mode spectrophotometer (Biotek instruments) with excitation at 368 nm and emission at 450 nm.
as §5

[10] = Bhargava et al. Current Science 1995; cited from earlier work
[11] = pNPP assay / affinity (Examples 4-5); format: biochemical; conditions: 2.0 mM pNPP, 20 minutes, 37° C.; FIG. 8A, 9B
Description: as §4, §5

[12] = Whole cell ATP degradation activity assay (periplasmic samples, AMFAS); format: biochemical; conditions: induced cells, lysozyme/EDTA, 37° C., 30 minutes
Method: As a crude assay for confirming expression of active enzyme, a whole cell ATP degradation activity assay was performed. 100 mM ATP was prepared in 50 mM Tris, pH 7.5. After dissolution, the pH was adjusted to 7.5 using NaOH. Pellets from 1 mL culture of induced cells were taken and washed twice with saline containing 1 mM Calcium chloride. The cells were treated with Lysozyme and EDTA to lyse the cell wall to release the periplasmic contents.
150 μL of 40 mM EDTA and 150 μL of 10 mM ATP was added to the pellet and mixed well, followed by incubation at 37° C. for 30 minutes.

[13] = ATP hydrolysis using purified recombinant apyrase (AMFAS, Example 2); format: biochemical
Method: A titrated series of ATP solutions from 100 mM to 0.01 mM in 50 mM Tris, pH 7.5 were prepared and incubated with 700 ng of Apyrase (mutant prepared in Example 1 and wild-type Shigella flexneri apyrase as control) for 30 minutes at 37° C. (100 μL reaction). After the incubation, 100 μL AMFAS reagent was added and OD was taken at 630 nm using multimode reader (Biotek instruments). The color formation is proportional to the amount of ATP degraded (dephosphorylated to ADP or AMP). […] Specific activity at 10 mM ATP was determined as 6.3 μmoles/min/mg for the mutant apyrase.

## Shigella flexneri apyrase, mutant apyrase of Example 1, SEQ ID NO: 3 (S50N, F54V, G63R, L66V, N70Q, E77V, A791, D90T, S97T, L108M, Q113N, V120R, K124R, Y127Q, P143R, 1151L, F162N, A167G, N174Q, K177R, L182F, G184A, W199Y, G206R, V213A, N219K, F223W, L227S, F234Y, T239Q, E243D) (Shigella flexneri; A167G/A79I/D90T/E243D/E77V/F162N/F223W/F234Y/F53V/G185A/G206R/G63R/I151L/K124R/K178R/L108M/L182F/L227S/L66V/N174Q/N219K/N70Q/P143R/Q113N/S50N/S97T/T239Q/V120R/V213A/W199Y/Y127Q)
[1]
  Km: 2.1 mM

## O=[N+]([O-])c1ccc(OP(=O)(O)O)cc1 [pNPP, para-Nitrophenylphosphate]
[2]
  Km for pNPP: Too low affinity
Alkaline phosphatase
  Km: 8.4 mM
[3]
  Km: 3.5 mM

## EIEC apyrase (Escherichia coli)
[4]
  Km: 0.021 mM
[5]
  Km: 25.0 mM

## Shigella flexneri apyrase (ApiOne, SEQ ID NO: 1) ApiTwo mutant L66V (Shigella flexneri; L66V)
[6]
  Km: 0.76 mM
[7]
  Km: 5.6 mM

B1: ApiOne: wild-type Shigella flexneri apyrase, SEQ ID NO: 1, termed ApiOne (protein, listed as Shigella flexneri)
chain: MKTKNFLLFCIATNMIFIPSANALKAEGFLTQQTSPDSLSILPPPPAENSVVFQADKAHYEFGRSLRDANRVRLASEDAYYENFGLAFSDAYGMDISRENTPILYQLLTQVLQDSHDYAVRNAKEYYKRVRPFVIYKDATCTPDKDEKMAITGSYPSGHASFGWAVALILAEINPQRKAEILRRGYEFGESRVICGAHWQSDVEAGRLMGASVVAVLHNTPEFTKSLSEAKKEFEELNTPTNELTP
[8]
  pNPP hydrolysis: not active
[8]; listed as wildtype enzyme
  pNPP hydrolysis: lacks such activity
[9]
  Hydrolysis of TPP (in words): no detectable activity
[10]
  Hydrolysis of pNPP: does not hydrolyse

B2: F53V: Shigella flexneri apyrase (SEQ ID NO: 1) with single substitution F53V (protein, listed as Shigella flexneri)
chain: B1 chain with F53V
[11]
  Hydrolysis of pNPP (in words): could hydrolyse
[9]
  Hydrolysis of TPP (in words): could hydrolyse

B3: L66V (protein, listed as Shigella flexneri)
chain: B1 chain with L66V
[11]
  Hydrolysis of pNPP (in words): could hydrolyse
[9]
  Hydrolysis of TPP (in words): could hydrolyse

B4: E77V: Shigella flexneri apyrase (SEQ ID NO: 1) with single substitution E77V (protein, listed as Shigella flexneri)
chain: B1 chain with E77V
[11]
  Hydrolysis of pNPP (in words): could hydrolyse
[9]
  Hydrolysis of TPP (in words): could hydrolyse

B5: Mutant apyrase (protein)
chain: MKTKNFLLFCIATNMIFIPSANALKAEGFLTQQTSPDSLSILPPPPAENNVVVQADKAHYEFRRSVRDAQRVRLASVDIYYENFGLAFSTAYGMDITRENTPILYQLMTQVLNDSHDYARRNAREYQKRVRPFVIYKDATCTRDKDEKMALTGSYPSGHASNGWAVGLILAEIQPQRRAEIFRRAYEFGESRVICGAHYQSDVEARRLMGASAVAVLHKTPEWTKSSSEAKKEYEELNQPTNDLTPLEHHHHHH
modifications: Synthetic construct mutated variant
[12]
  ATP hydrolysis by periplasmic fraction: can hydrolyse ATP similar to the WT apyrase
[13]; ATP 100 mM to 0.01 mM, 37° C., FIG. 4
  ATP degradation activity compared with wild-type: indistinguishable from the wild-type enzyme
[13]; at 10 mM ATP
  Specific activity: 6.3 µmol/min/mg
[8]; listed as mutant
  pNPP hydrolysis: has acquired the ability to hydrolyse pNPP
[8]; listed as mutant apyrase
  pNPP hydrolysis: considerable activity
